Measurements as given in the Immune Epitope Database (IEDB).

Assays:
HLA-A*68:02 = assay: IEDB peptide-MHC binding, purified MHC/competitive/fluorescence; ≥ and ≤ were set here for values at or beyond the usual limits of such assays; settings: source organism: Homo sapiens
HLA-A*03:01 [1] = assay: as above; settings: source organism: Homo sapiens
HLA-B*14:02 = assay: as above; settings: source organism: Homo sapiens
HLA-B*58:01 = assay: as above; settings: source organism: Homo sapiens
HLA-B*37:01 = assay: as above; settings: source organism: Homo sapiens
HLA-B*51:01 [2] = assay: as above; settings: source organism: Homo sapiens
HLA-A*25:01 = assay: as above; settings: source organism: Homo sapiens
HLA-A*31:01 = assay: as above; settings: source organism: Homo sapiens
HLA-A*29:02 [3] = assay: as above; settings: source organism: Homo sapiens
HLA-A*24:02 = assay: as above; settings: source organism: Homo sapiens
HLA-B*53:01 = assay: as above; settings: source organism: Homo sapiens
HLA-A*02:01 [4] = assay: as above; settings: source organism: Homo sapiens
HLA-B*08:01 = assay: as above; settings: source organism: Homo sapiens
HLA-B*40:02 = assay: as above; settings: source organism: Homo sapiens
HLA-A*11:01 = assay: as above; settings: source organism: Homo sapiens
HLA-B*18:01 [5] = assay: as above; settings: source organism: Homo sapiens
HLA-B*07:02 = assay: as above; settings: source organism: Homo sapiens
HLA-B*35:01 = assay: as above; settings: source organism: Homo sapiens
HLA-A*01:01 = assay: as above; settings: source organism: Homo sapiens
HLA-B*44:03 = assay: as above; settings: source organism: Homo sapiens
HLA-A*02:12 = assay: IEDB peptide-MHC binding, purified MHC/direct/fluorescence; filed as Kd, often an IC50 or EC50 that approximates it; ≥ and ≤ were set here for values at or beyond the usual limits of such assays; settings: source organism: Escherichia coli O157:H7 str. EC869
HLA-A*24:03 = assay: as above; settings: source organism: Escherichia coli O157:H7 str. EC869
HLA-B*27:03 = assay: as above; settings: source organism: Escherichia coli O157:H7 str. EC869
HLA-A*03:01 [6] = assay: as above; settings: source organism: Escherichia coli O157:H7 str. EC869
HLA-A*02:19 = assay: as above; settings: source organism: Escherichia coli O157:H7 str. EC869
HLA-A*02:03 = assay: as above; settings: source organism: Escherichia coli O157:H7 str. EC869
HLA-B*46:01 = assay: as above; settings: source organism: Escherichia coli O157:H7 str. EC869
HLA-A*02:11 = assay: as above; settings: source organism: Escherichia coli O157:H7 str. EC869
HLA-A*02:16 = assay: as above; settings: source organism: Escherichia coli O157:H7 str. EC869
HLA-B*51:01 [7] = assay: as above; settings: source organism: Escherichia coli O157:H7 str. EC869
HLA-B*15:17 = assay: as above; settings: source organism: Escherichia coli O157:H7 str. EC869
HLA-B*57:01 = assay: as above; settings: source organism: Escherichia coli O157:H7 str. EC869
HLA-A*29:02 [8] = assay: as above; settings: source organism: Escherichia coli O157:H7 str. EC869
HLA-B*39:01 = assay: as above; settings: source organism: Escherichia coli O157:H7 str. EC869
HLA-A*02:01 [9] = assay: as above; settings: source organism: Escherichia coli O157:H7 str. EC869
HLA-A*02:06 = assay: as above; settings: source organism: Escherichia coli O157:H7 str. EC869
HLA-A*26:01 = assay: as above; settings: source organism: Escherichia coli O157:H7 str. EC869
HLA-B*18:01 [10] = assay: as above; settings: source organism: Escherichia coli O157:H7 str. EC869

IC50 (HLA-A*68:02) [µM] | IC50 (HLA-A*03:01 [1]) [µM] | IC50 (HLA-B*14:02) [µM] | IC50 (HLA-B*58:01) [µM] | IC50 (HLA-B*37:01) [µM] | IC50 (HLA-B*51:01 [2]) [µM] | IC50 (HLA-A*25:01) [µM] | IC50 (HLA-A*31:01) [µM] | IC50 (HLA-A*29:02 [3]) [µM] | IC50 (HLA-A*24:02) [µM] | IC50 (HLA-B*53:01) [µM] | IC50 (HLA-A*02:01 [4]) [µM] | IC50 (HLA-B*08:01) [µM] | IC50 (HLA-B*40:02) [µM] | IC50 (HLA-A*11:01) [µM] | IC50 (HLA-B*18:01 [5]) [µM] | IC50 (HLA-B*07:02) [µM] | IC50 (HLA-B*35:01) [µM] | IC50 (HLA-A*01:01) [µM] | IC50 (HLA-B*44:03) [µM] | Sequence | other results
≥ 20 | 1.02 | ≥ 20 | ≥ 20 | ≥ 20 | ≥ 20 | ≥ 20 | 1.05 | 1.46 | ≥ 20 | ≥ 20 | ≥ 20 | ≥ 20 | 4.59 | 0.0665 | ≥ 20 | ≥ 20 | ≥ 20 | ≥ 20 | ≥ 20 | GSSDFQVHFLK | –
0.0243 | ≥ 20 | ≥ 20 | ≥ 20 | 0.907 | ≥ 20 | ≥ 20 | ≥ 20 | ≥ 20 | ≥ 20 | ≥ 20 | 0.0193 | ≥ 20 | 0.745 | ≥ 20 | ≥ 20 | ≥ 20 | ≥ 20 | ≥ 20 | ≥ 20 | KVADVDLAVPV | –
– | – | – | – | – | – | – | – | – | – | – | – | – | – | – | – | – | – | – | – | SQFNHWFGE | Kd (HLA-A*02:12): ≥ 20 µM; Kd (HLA-A*24:03): ≥ 20 µM; Kd (HLA-B*27:03): ≥ 20 µM; Kd (HLA-A*03:01 [6]): ≥ 20 µM; Kd (HLA-A*02:19): ≥ 20 µM; Kd (HLA-A*02:03): ≥ 20 µM; Kd (HLA-B*46:01): ≥ 20 µM; Kd (HLA-A*02:11): ≥ 20 µM; Kd (HLA-A*02:16): ≥ 20 µM; Kd (HLA-B*51:01 [7]): ≥ 20 µM; Kd (HLA-B*15:17): ≥ 20 µM; Kd (HLA-B*57:01): ≥ 20 µM; Kd (HLA-A*29:02 [8]): ≥ 20 µM; Kd (HLA-B*39:01): ≥ 20 µM; Kd (HLA-A*02:01 [9]): ≥ 20 µM; Kd (HLA-A*02:06): 0.086 µM; Kd (HLA-A*26:01): ≥ 20 µM; Kd (HLA-B*18:01 [10]): ≥ 20 µM
